Test results published in patent US20240350597A1, “PROTEASE INHIBITORS” (University College Dublin, priority 2023, published 2024).
Entries after “also recorded” stand apart in the source; their conditions may differ.

Test system: SARS-CoV-2 (WT, D614G)
Assay type: cell-based

Molecule	inhibition of SARS-CoV-2 WT (D614G) infection (in words)	inhibition of SARS-CoV-2 replication / infection (50 µM)	inhibition of SARS-CoV-2 replication	inhibition of viral replication, full time treatment (50 µM)	viral inhibition, treatment limited to viral entry (50 µM)
B3-WT: Wild type recombinant SerpinB3 (SCCA-1), 44.5 kDa cross-class inhibitor of cysteine proteases including CatL; SEQ ID No. 5 (protein, listed as Homo sapiens) MNSLSEANTKFMFDLFQQFRKSKENNIFYSPISITSALGMVLLGAKDNTAQQIKKVLHFDQVTENTTGKAATYHVDRSGNVHHQFQKLLTEFNKSTDAYELKIANKLFGEKTYLFLQEYLDAIKKFYQTSVESVDFANAPEESRKKINSWVESQTNEKIKNLIPEGNIGSNTTLVLVNAIYFKGQWEKKFNKEDTKEEKFWPNKNTYKSIQMMRQYTSFHFASLEDVQAKVLEIPYKGKDLSMIVLLPNEIDGLQKLEEKLTAEKLMEWTSLQNMRETRVDLHLPRFKVEESYDLKDTLRTMGMVDIFNGDADLSGMTGSRGLVLSGVLHKAFVEVTEEGAEAAAATAVVGFGSSPTSTNEEFHCNHPFLFFIRQNKTNSILFYGRFSSP	reductions in SARS-CoV-2 infection	50%			
B3-TMP: SerpinB3 variant with RCL residues 350 to 354 (P4 to P1′) replaced by IQFRV to inhibit TMPRSS2; SEQ ID No. 6 (protein) MNSLSEANTKFMFDLFQQFRKSKENNIFYSPISITSALGMVLLGAKDNTAQQIKKVLHFDQVTENTTGKAATYHVDRSGNVHHQFQKLLTEFNKSTDAYELKIANKLFGEKTYLFLQEYLDAIKKFYQTSVESVDFANAPEESRKKINSWVESQTNEKIKNLIPEGNIGSNTTLVLVNAIYFKGQWEKKFNKEDTKEEKFWPNKNTYKSIQMMRQYTSFHFASLEDVQAKVLEIPYKGKDLSMIVLLPNEIDGLQKLEEKLTAEKLMEWTSLQNMRETRVDLHLPRFKVEESYDLKDTLRTMGMVDIFNGDADLSGMTGSRGLVLSGVLHKAFVEVTEEGAEAAAATAVIQFRVSPTSTNEEFHCNHPFLFFIRQNKTNSILFYGRFSSP	good dose-dependent downregulation of viral replication; also recorded: greater inhibitor for both viral strains than WT-SerpinB3		up to 50%	93%	up to 70%
